From article doi:10.1101/2024.02.12.579695 come the findings set out here.

Data set [1] deals with DR2539 full length (Deinococcus radiodurans). Description: SEC. Background: SEC sorts molecules by how far they enter the pores of the column.
Data set [2] has the same target. The experiment in a line: SAXS.
The target of data set [3] is truncated DR2539 (DR2539tr, residues 4-142) (Deinococcus radiodurans). The experiment in a line: SAXS.
Another data set concerns the target T1, DR2539 full length (Deinococcus radiodurans, UniProt Q9RRF3 1-232).
T1 sequence: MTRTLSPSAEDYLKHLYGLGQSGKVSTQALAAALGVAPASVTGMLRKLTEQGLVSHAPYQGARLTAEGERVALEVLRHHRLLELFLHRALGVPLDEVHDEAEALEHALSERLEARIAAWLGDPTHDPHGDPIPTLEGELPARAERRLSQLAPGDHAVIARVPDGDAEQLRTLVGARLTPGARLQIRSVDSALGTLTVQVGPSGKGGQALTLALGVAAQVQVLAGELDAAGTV
The experiment in a line: EMSA. (In general: Mobility shift assays separate free from complexed probe on a gel.)

Consider DR2539 full length (natural protein), for which the stoichiometry N in data set [1] and in data set [2] was 2 each time.

As to “truncated DR2539 (DR2539tr, residues 4-142) (domain or fragment)”, the stoichiometry N (usually a count of units in the complex or per binding partner) in data set [3] was determined as 2.

B1: dr1709p_wt (dsDNA)
DNA 1: ATTTTAGTCGCGCCTAAAATA
DNA 2: TATTTTAGGCGCGACTAAAAT
Consider B1, for which the binding result with DR2539 full length is given as “binds”.
